Measurements reported in patent US6773918B2, “Detection of phenols using engineered bacteria” (The Regents of the University of California, priority 1999, dated 2004).
Numbering of substitutions follows the chain as printed.

What was measured:
[1] = test system: Pdmp-lacZ reporter fusion; test: Liquid β-galactosidase assay, test strain AW101 (Pdmp-lacZ fusion) carrying pAW50 dmpR derivatives, exposed to phenols; assay type: cell-based, E. coli
Description: Reference will now be made in detail to the present preferred embodiments of the present invention, examples of which are shown in the accompanying drawings. Turning now to FIG. 1, the dmpR wt-N gene (See, e.g., Shingler and Moore, supra) carried on plasmid pAW50 served as the template for amplification of the dpmR sensor domain by mutagenic polymerase chain reaction (PCR). The products resulting from the mutagenic PCR were digested using Ndel and SacII and ligated back into a pAW50 plasmid fragment, from which the wild type Ndel-SacII region had been removed. […] Ligation products were electroporated into AW101 (trp::Pdmp-lacZ fusion). Transformants were initially selected for tetracycline resistance and then replicated onto plates containing X-gal and one of the test phenols. Colonies that developed more blue color than colonies containing wild type DmpR were selected for further analysis with liquid β-galactosidase assays. β-galactosidase activity is proportional to transcription of the Pdmp-lacZ reporter fusion and is, therefore, a measure of particular variant DmpR's ability to detect phenol or specific substituted phenols. This mutagenic procedure led to the identification of more than twenty DmpR derivatives with altered response to phenols. Five of these derivatives are representative of proteins which show significant promise as effective detectors of phenols listed as primary pollutants by the U.S. Environment Protection Agency.
AW101 was used as a test strain to identify and characterize changes in DmpR's sensing capacity subsequent to sensor domain mutagenesis. pAW50 derivatives were electroporated into AW101 and transformants were selected on Luria-Bertani (Difco, Detroit, Mich.) plates containing 10.5 μg/ml tetracycline. Transformants were then replica-plated onto M9 minimal medium (10) plates containing 0.2% glucose, 30 μg/ml tryptophan, 1 μg/ml thiamine, 10.5 μg/ml tetracycline, 0.25% 5-bromo-4-chloro-3-indoyl-β-D-galactoside (X-Gal), and either no inducer (NI) or 0.05 mM of a phenol derivative. Cells that formed blue colonies on plates containing a phenol derivative were subject to liquid β-galactosidase assays.
D. β-Galactosidase Assays. Overnight cultures of AW101 carrying pAW50 derivatives were diluted 1000-fold into Luria-Bertani broth containing 10.5 μg/ml tetracycline. When cells reached an OD595 nm between 0.60 and 0.90 as measured on a Lambda Bio uv/vis spectrophotometer (Perkin Elmer Corp. Analytical Instruments, Norwalk, Conn.), 500 μL samples were pelleted and immediately resuspended in 500 μL spent Luria-Bertani broth containing the appropriate phenol compound. […] Samples were pelleted and frozen at −70° C. for assay the following day.
Liquid β-galactosidase assays were performed using a modification of Miller's assay (Miller, J. H., 1972. “Experiments in Molecular Genetics,” Cold Spring Harbor Laboratory, Cold Spring Harbor, N.Y.). Cell sample pellets were thawed and resuspended in Z buffer. The optical density at 595 nm of each cell suspension was read in a microtiter plate using an automated microplate reader (BIO-TEK Instruments, Inc., Winooski, Vt.). Following the addition of 15 μL 0.1% sodium dodecyl sulfate and 25 μL HCCl3, the remaining cell suspension was vortexed for 30 s to lyse cells. The reaction was begun with the addition of 50 μL o-nitrophenyl-β-D-galactopyranoside (2.5 mg/ml) to the lysed cells. Reactions were incubated at 26° C. until stopped with the addition of 50 μL 1M Na2CO3. Color development of the reactions was read at OD415 on the microplate reader. Arbitrary units for graphing purposes were calculated as (1000×OD415)/(time)(OD595) where time is the reaction time in minutes. Equivalent cell volumes were read for both optical densities.

[2] = test system: Pdmp-lacZ reporter fusion; test: β-galactosidase detection of phenols in contaminated soil by the bacterial test strain; assay type: cell-based, E. coli
Description: FIG. 5a compares the detection of 2,4-dichlorophenol by DmpR-B9 (SEQ ID No. 1 hereof) with that for unsubstituted phenol shown in FIG. 5b in contaminated soil, unsubstituted phenol being a natural effector of wild type DmpR. Detection of chemicals in contaminated soil is often difficult because soil may bind the phenols, making them less available to the test bacteria. […] The response of DmpR-B9 to 4 parts per million (ppm) 2,4-dichlorophenol in soil is six-fold higher than that of wild type DmpR. DmpR-B9′s response to 2.5 ppm phenol is four-fold better than that of wild type.

B1: DmpR-B21: engineered DmpR derivative with mutated sensor domain (SEQ ID No. 3 and No. 9) (protein)
chain: MPIKYKPEIQHSDFKDLTNLIHFQSMEGKIWLGEQRMLLLQFSAMASFRREMVNTLGIERAKGLFLRHGYQSGLKDAELARKLRPNASEVGMFLAGPQMHSLKGLVKVRPTGLDIDKEYGRFYAEMEWIDWFEVEICQTDLGQMQDPVCWTVLGYACAYSSAFMGREIIFKEVSCRGCGG
- increase in β-galactosidase activity ([1]; 0.0025 mM solution of 2-chlorophenol (0.3 parts per million)): 60 fold
- response (β-galactosidase activity) ([1]; 2,4-dichlorophenol at 0.025 mM (4 parts per million)): elicits a response

B2: DmpR-B9: engineered DmpR derivative with mutated sensor domain (SEQ ID No. 1) (protein)
chain: B1 chain with K4E, F42S, G112E
- response relative to wild type ([2]; 2.5 ppm phenol in soil): four
- response relative to wild type DmpR ([2]; 4 parts per million (ppm) 2,4-dichlorophenol in soil): six
- capacity to detect phenols in soil compared with wild type protein ([2]; contaminated soil): significantly better

B3: DmpR-B17#2: engineered DmpR derivative with mutated sensor domain (SEQ ID No. 2) (protein)
chain: B1 chain with G112E
- response to low concentrations of phenol ([1]; 2,4-dichlorophenol): responds to low concentrations
- response to low concentrations of phenol ([1]; 2-nitrophenol): responds to low concentrations
- response to low concentrations of phenol ([1]; 4-nitrophenol): responds to low concentrations
- detection compared with wild type protein ([1]; six concentrations of 4-chloro-3-methylphenol): significantly better detectors

B4: DmpR-B31: engineered DmpR derivative with mutated sensor domain (SEQ ID No. 5) (protein)
chain: B1 chain with I58V, A61T, G112E, D146G
- response to most substituted phenols ([1]; 2,4-dichlorophenol, 2,4-dimethylphenol, 4-nitrophenol (FIG. 6a)): strong response
- uninduced (NI) value ([1]; no inducer (no phenol)): relatively high

B5: DmpR-B23: engineered DmpR derivative with mutated sensor domain (SEQ ID No. 4) (protein)
chain: B1 chain with Q10R, G112E, K117M
- response relative to wild type DmpR ([1]; 0.5 ppm 2-chlorophenol, four-hour exposure): more than 20 fold
- effect of four-hour exposure on detection signal (β-galactosidase activity units) ([1]; low concentrations of 2-chlorophenol): increases the detection signal
- detection compared with wild type protein ([1]; six concentrations of 2-chlorophenol, 60 minute exposure): significantly better detectors

B6: DmpR-D12: engineered DmpR derivative with mutated sensor domain (SEQ ID No. 7) (protein)
chain: B1 chain with G112E, L141P
- detection relative to wild type DmpR ([1]; 3 ppm 2,4-dichlorophenol): 10 fold
- detection relative to wild type DmpR ([1]; 10 ppm 4-chloro-3-methylphenol): eight

B7: DmpR-D9: engineered DmpR derivative with mutated sensor domain (SEQ ID No. 6) (protein)
chain: B1 chain with G112E, D116G, K117R, F163L
- response relative to wild type protein ([1]; 2-chlorophenol): nineteen
